For the test, the target named is 2D9-binding PAGs (immuno-affinity purified PAGs used as ELISA standards). Briefly: sandwich ELISA on 2D9-coated plates with immuno-affinity purified PAG standards, log-logit transformation, SoftMax. Background: In an ELISA, binding on a coated surface is turned into a signal by an enzyme label.

B1: monoclonal antibody 2D9 (antibody, mouse IgG1, kappa, V domains shown)
VH: QVQLQQSGAELMKPGASVKISCKATGYIFSNYWMEWVKQRPGHGLEWIGEILPGSDITNYNEKFKDKATFTADSSSNTAYMQLSSLTSEDSAVYYCARAGSGYYGVYYYAMDYWGQGTSVTVSS
VL: DVLMTQTPLSLPVSLGDQASISCRSRQSIVHSNGNTYLEWFLQKPGQSPKLLIYKVSNRFSGVPDRFSGSGSGTDFTLKISRVEAEDLGVYYCFQGSHVPLTFGAGTKLELKR
What is called Kd is the free concentration of one partner at which half of the binding sites on the other are occupied at equilibrium, for simple one-to-one binding. A high value points to a looser complex. B1: the Kd was 0.9 nM.

The record behind these values is US20110076705A1.
